Source: patent US20120244144A1 (University of Texas, published 2012)

What was measured:
[1] = molecular target: pertussis toxin holotoxin (Bordetella pertussis) (UniProt P04977); assay: cell-based or functional assay
[2] = molecular target: pertussis toxin holotoxin (Bordetella pertussis) (UniProt P04977); assay: competition ELISA (Friguet), 5 nM antibody, soluble PT
[3] = molecular target: pertussis toxin holotoxin (Bordetella pertussis), P04977; details: remark: other sources report otherwise

Row | Molecule | In Vitro Neutralization (nM), minimum protective concentration, CHO clustering assay [1] [nM] | Kd [2] [nM] | Kd [3] [nM]
1 | 11E6 scAb (scFv) | 377 | 19 | 
2 | 1B7 F(ab)2 | 15 |  | 
3 | 11E6 Fab | 42 | 9.3 | 
4 | 1B7 Fab (Fab) DIQMTQSPALMSASPGEKVTMTCSASSSVSFMYWYQQKPRSSPKPWIYLTSNLPSGVPARFSGSGSGTSYSLTISSMEAEDAATYYCQQWSSHPPTFGSGTKLEIKRGGGGSGGGGSGGGGSGGGGSEVQLQQSGSELVRPGASVKLSCKASGYKFTSYWMHWVKQRPGQGLEWIGNIFPGSGSTNYDEKFNSKATLTVDTSSNTAYMQLSSLTSEDSAVYYCTRWLSGAYFDYWGQGTTLTVSSASGA |  |  | 2
